Laboratory results taken from patent US20220332804A1 (CSL INNOVATION, published 2022).

Columns and labels:
Assay in all cases: SPR, mAb captured, C2 mutant analyte;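 note: Anti-C2 mAbs captured on goat anti-human IgG Biacore CM5 chips, alanine or serine C2 surface mutants flowed over at 37 °C, double-referenced sensorgrams fitted to a 1:1 binding model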
human C2 K274A = biological target: T1, human C2 K274A (human, UniProt P06681 21-752)
T1 sequence: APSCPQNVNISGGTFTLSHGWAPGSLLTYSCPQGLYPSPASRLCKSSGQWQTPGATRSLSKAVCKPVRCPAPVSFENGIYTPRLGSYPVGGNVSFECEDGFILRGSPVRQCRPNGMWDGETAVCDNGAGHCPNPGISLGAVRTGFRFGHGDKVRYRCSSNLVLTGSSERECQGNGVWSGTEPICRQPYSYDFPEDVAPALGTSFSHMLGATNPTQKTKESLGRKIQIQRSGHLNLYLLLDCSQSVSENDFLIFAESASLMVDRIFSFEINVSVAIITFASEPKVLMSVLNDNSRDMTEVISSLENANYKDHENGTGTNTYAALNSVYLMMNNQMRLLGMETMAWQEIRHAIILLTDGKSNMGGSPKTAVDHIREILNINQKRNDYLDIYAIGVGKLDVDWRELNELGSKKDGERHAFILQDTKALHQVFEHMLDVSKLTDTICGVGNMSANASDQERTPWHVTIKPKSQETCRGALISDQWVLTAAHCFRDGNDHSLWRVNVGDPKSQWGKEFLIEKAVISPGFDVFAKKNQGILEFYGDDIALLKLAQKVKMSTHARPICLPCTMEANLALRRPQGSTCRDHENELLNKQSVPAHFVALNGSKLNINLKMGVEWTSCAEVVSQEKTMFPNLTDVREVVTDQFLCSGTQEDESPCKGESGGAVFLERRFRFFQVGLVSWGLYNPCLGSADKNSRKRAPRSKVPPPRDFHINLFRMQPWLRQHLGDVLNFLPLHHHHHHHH

human C2 G414A = biological target: T2, human C2 G414A (human, UniProt P06681 21-752)
T2 sequence: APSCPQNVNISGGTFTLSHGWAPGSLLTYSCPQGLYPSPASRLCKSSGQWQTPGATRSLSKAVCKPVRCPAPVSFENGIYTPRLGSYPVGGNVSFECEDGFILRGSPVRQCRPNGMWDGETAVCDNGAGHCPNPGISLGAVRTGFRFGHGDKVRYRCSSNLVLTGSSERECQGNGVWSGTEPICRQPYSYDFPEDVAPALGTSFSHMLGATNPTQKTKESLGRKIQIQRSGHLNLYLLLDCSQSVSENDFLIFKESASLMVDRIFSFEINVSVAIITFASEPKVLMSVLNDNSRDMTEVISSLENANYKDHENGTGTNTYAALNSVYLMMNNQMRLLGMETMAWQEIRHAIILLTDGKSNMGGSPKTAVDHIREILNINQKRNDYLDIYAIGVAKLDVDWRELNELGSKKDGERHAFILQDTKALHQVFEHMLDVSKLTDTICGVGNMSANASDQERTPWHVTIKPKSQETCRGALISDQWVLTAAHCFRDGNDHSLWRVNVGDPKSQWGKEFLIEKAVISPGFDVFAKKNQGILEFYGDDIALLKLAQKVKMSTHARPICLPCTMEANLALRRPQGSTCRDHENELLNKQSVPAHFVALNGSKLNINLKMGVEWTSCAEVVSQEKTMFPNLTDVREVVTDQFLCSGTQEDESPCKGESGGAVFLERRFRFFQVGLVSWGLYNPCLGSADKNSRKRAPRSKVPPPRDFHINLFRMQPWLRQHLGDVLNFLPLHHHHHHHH

human C2 W420A = biological target: T3, human C2 W420A (human, UniProt P06681 21-752)
T3 sequence: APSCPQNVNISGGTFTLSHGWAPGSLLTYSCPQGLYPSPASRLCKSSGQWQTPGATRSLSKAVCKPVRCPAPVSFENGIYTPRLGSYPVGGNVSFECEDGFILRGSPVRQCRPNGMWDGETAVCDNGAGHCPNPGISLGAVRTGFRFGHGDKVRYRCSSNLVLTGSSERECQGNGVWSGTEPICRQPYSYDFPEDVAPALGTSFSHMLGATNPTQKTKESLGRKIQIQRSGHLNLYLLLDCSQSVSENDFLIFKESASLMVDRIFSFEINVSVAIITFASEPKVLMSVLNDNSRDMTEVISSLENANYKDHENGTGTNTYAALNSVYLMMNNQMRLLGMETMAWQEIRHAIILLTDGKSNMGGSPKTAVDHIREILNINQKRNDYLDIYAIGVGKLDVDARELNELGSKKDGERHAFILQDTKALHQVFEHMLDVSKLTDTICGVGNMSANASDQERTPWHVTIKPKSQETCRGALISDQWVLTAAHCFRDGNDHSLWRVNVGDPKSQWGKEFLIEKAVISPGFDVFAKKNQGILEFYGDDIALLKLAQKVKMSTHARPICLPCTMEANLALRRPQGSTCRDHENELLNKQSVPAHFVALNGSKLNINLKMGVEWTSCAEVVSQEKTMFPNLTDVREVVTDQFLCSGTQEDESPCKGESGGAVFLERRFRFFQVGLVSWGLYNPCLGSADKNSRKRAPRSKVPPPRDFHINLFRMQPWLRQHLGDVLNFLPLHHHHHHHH

human C2 A444S = biological target: T4, human C2 A444S (human, UniProt P06681 21-752)
T4 sequence: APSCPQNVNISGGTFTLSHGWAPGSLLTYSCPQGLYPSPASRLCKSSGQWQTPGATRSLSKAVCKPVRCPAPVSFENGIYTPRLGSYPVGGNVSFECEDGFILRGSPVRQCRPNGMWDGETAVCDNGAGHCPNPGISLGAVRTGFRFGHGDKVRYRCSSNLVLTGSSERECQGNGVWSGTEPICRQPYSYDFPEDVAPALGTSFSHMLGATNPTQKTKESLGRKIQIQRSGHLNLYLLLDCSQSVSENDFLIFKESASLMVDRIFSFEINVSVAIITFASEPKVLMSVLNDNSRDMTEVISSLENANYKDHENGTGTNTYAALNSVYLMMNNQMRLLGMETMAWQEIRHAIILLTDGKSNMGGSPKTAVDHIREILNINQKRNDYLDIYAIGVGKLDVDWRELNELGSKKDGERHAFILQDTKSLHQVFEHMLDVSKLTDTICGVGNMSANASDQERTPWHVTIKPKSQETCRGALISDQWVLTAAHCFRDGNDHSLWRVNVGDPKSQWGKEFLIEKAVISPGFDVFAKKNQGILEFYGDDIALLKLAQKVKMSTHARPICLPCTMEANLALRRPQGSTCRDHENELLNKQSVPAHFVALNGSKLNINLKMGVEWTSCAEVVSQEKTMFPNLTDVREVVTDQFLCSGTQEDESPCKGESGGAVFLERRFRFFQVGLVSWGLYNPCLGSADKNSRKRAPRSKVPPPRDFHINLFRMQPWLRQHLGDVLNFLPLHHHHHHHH

binding result (human C2 K274A): no binding | Kd (human C2 G414A): 14.8 nM | Kd (human C2 W420A): 34.9 nM | Kd (human C2 A444S): 20.7 nM
B1: RF16-214 (antibody, V domains shown)
VH: EVQLLESGGGLVQPGGSLRLSCAASGFTFSWYQMMWVRQAPGKGLEWVSRIYPSGGGTAYADSVKGRFTISRDNSKNTLYLQMNSLRAEDTAVYYCARDAGYGDNWGQGTLVTVSS
VL: QSALTQPPSVSVSPGQTASITCSGDKLGEKYASWYQQKAGQSPVMVIYQDRKRPSGIPERFSGSNSGNTATLTISGTQAMDEADYYCQAWDTRAVVFGGGTKLTVLG
